Measured values from article PMC5849709, “Structure-based design of chimeric antigens for multivalent protein vaccines” (Nature Communications, 2018).

T1: factor H binding protein (fHbp) peptide V1.1, N-terminally truncated, soluble (N. meningitidis, UniProt Q9JXV4 25-274)
T1 sequence: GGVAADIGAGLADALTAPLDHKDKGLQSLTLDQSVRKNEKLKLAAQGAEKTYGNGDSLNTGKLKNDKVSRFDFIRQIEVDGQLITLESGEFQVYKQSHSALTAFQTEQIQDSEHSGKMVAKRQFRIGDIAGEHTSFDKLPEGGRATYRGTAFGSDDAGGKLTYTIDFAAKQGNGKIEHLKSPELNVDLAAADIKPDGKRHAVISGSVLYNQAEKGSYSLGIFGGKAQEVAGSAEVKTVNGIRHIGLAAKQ

B1: domains 6 and 7 of human complement factor H (CFH6/7) (domain or fragment, UniProt P08603 321-444, looked up)
chain: TLKPCDYPDIKHGGLYHENMRRPYFPVAVGKYYSYYCDEHFETPSGSYWDHIHCTQDGWSPAVPCLRKCYFPYLENGYNQNYGRKFVQGKSIDVACHPGYALPKAQTTVTCMENGWSPTPRCIR

Legend:
Experiment in all cases: SPR
[1] = molecular target: fHbp^V1.1:PorA^117/P1.16 (N. meningitidis) (UniProt Q9JXV4)
[2] = molecular target: fHbp^V1.1:PorA^151/P1.16 (N. meningitidis) (UniProt Q9JXV4)
[3] = molecular target: fHbp^V1.1:PorA^267/P1.16 (N. meningitidis) (UniProt Q9JXV4)
[4] = molecular target: fHbp^V1.1:PorA^294/P1.16 (N. meningitidis)
[5] = molecular target: fHbp^V1.1:PorA^309/P1.16 (N. meningitidis)
[6] = molecular target: T1, factor H binding protein (fHbp) peptide …; settings: both partners purified

Molecule	Kd [1] [nM]	Kd [2] [nM]	Kd [3] [nM]	Kd [4] [nM]	Kd [5] [nM]	Kd [6] [nM]
domains 6 and 7 of human complement factor H (CFH6/7) (from UniProt P08603 321-444) (domain or fragment)	2.3	2.3	28	2.7	5.5	
B1						3.6 ± 0.4
